# According to patent publication US20030162734:
# Assays:
# [1] = biological target: DENN-JBD (JNK binding domain region of DENN lacking the NLS and DD regions, fused to the C-terminus of EGFP) (UniProt Q8WXG6)
# [2] = biological target: GFP-DENN (full length DENN/MADD fused to the C-terminus of EGFP) (UniProt Q8WXG6)
substance,measurement,setting,value
"JNK (c-Jun N-terminal kinase), endogenous in NSC19 cells; p54 and p46 isoforms of phosphorylated JNK","p54 band of phosphorylated JNK on Western immunoblot, NSC19 clones, 24 h Aβ exposure",[1],DENN and DENN-JBD affected 3 to 4-fold increase in the p54 band with Aβ exposure
same,"phosphorylated c-Jun (Ser73) on immunoblot, NSC19 clones",[1],"Expression of ΔMEKK1, DENN, DENN-CT and DENN-JBD showed sustained levels of phosphorylated c-Jun"
same,"p54 band of phosphorylated JNK on Western immunoblot, NSC19 clones, 24 h Aβ exposure",[2],DENN and DENN-JBD affected 3 to 4-fold increase in the p54 band with Aβ exposure
